Measured values: paper PMC3193175

Target: split SUMO-modified PCNA (N-fragment and ^SUMOC-fragment self-assembled) (yeast) (UniProt P15873)
Experiment: SEC

“split SUMO-modified PCNA (N-fragment and ^SUMOC-fragment self-assembled) (from UniProt P15873 1-163; P15873 165-258) (complex)” gave a stoichiometry N of 3.
